According to the supplement of paper PMC10567573:

B1: PDS5B (parent)
chain: ITYPPGVKEISDKISKEEMVRRLK

Variants of: B1
Experiment: protein stability index of a GFP-peptide fusion (GPS, HEK-293T) (PSI 1-6); higher = more stable
Conditions: c terminus: a fixed tail appended
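Also: lentivirally expressed fusions sorted by FACS into six bins by GFP to DsRed ratio, PSI derived from sequencing read proportions per bin multiplied by bin number.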

Point of comparison: ITTPPGVKEISDKISKEEMVRRLK [Y3T], protein stability index 3.14. Against it:
- ITQPPGVKEISDKISKEEMVRRLK [Y3Q] — higher, 4.97
- ITVPPGVKEISDKISKEEMVRRLK [Y3V] — higher, 4.44
- ITWPPGVKEISDKISKEEMVRRLK [Y3W] — lower, 2.8
- ITSPPGVKEISDKISKEEMVRRLK [Y3S] — higher, 4.43
- ITCPPGVKEISDKISKEEMVRRLK [Y3C] — higher, 3.52
- ITKPPGVKEISDKISKEEMVRRLK [Y3K] — higher, 4.64
- ITLPPGVKEISDKISKEEMVRRLK [Y3L] — higher, 3.81
- ITYPPGVKEISDKISKEEMVRWLK [R22W] — lower, 2.33
- ITYPPGVKEISDKISKEEMVRGLK [R22G] — higher, 4.72
- ITYPPGVKEISDKISKEEMVRILK [R22I] — lower, 2.71
- ITYPPGVKEISDKISKEEMVRKLK [R22K] — higher, 3.86
- ITYPPGVKEISDKISKEEMVRLLK [R22L] — lower, 2.28
- ITYPPGVKEISDKISKEEMVRNLK [R22N] — higher, 4.54
- ITYPPGVKEISDKISKEEMVRYLK [R22Y] — lower, 2.95
- ITYPPGVKEISDKISKEEMVRMLK [R22M] — lower, 2.89
- ITYPPGVKEISDKISKEEMVRSLK [R22S] — higher, 4.24
- ITYPPGVKEIRDKISKEEMVRRLK [S11R] — higher, 3.4
- ITYPPGVKEICDKISKEEMVRRLK [S11C] — higher, 3.94
- ITYPPGVKEIPDKISKEEMVRRLK [S11P] — higher, 4.29
- ITYPPGVKEIIDKISKEEMVRRLK [S11I] — lower, 2.83
- ITYPPGVKEIMDKISKEEMVRRLK [S11M] — lower, 2.35
- ITYPPGVKEILDKISKEEMVRRLK [S11L] — lower, 2.38
- ITYPPGVKEINDKISKEEMVRRLK [S11N] — higher, 3.98
- ITYPPGVKEIKDKISKEEMVRRLK [S11K] — higher, 4.72
- ITYPPGVKEIFDKISKEEMVRRLK [S11F] — higher, 3.3
- ILYPPGVKEISDKISKEEMVRRLK [T2L] — higher, 4.14
- IPYPPGVKEISDKISKEEMVRRLK [T2P] — higher, 3.47
- IGYPPGVKEISDKISKEEMVRRLK [T2G] — higher, 4.08
- IHYPPGVKEISDKISKEEMVRRLK [T2H] — higher, 3.79
- IRYPPGVKEISDKISKEEMVRRLK [T2R] — higher, 3.57
- ITYPSGVKEISDKISKEEMVRRLK [P5S] — higher, 4.45
- ITYPCGVKEISDKISKEEMVRRLK [P5C] — higher, 3.62
- ITYPHGVKEISDKISKEEMVRRLK [P5H] — higher, 3.67
- ITYPGGVKEISDKISKEEMVRRLK [P5G] — higher, 3.67
- ITYPNGVKEISDKISKEEMVRRLK [P5N] — higher, 4.01
- ITYPFGVKEISDKISKEEMVRRLK [P5F] — higher, 3.79
- ITYPEGVKEISDKISKEEMVRRLK [P5E] — higher, 4.11
- ITYPPGVKEISDKISKEFMVRRLK [E18F] — lower, 2.18
- ITYPPGVKEISDKISKEVMVRRLK [E18V] — higher, 3.6
- ITYPPGVKEISDKISKESMVRRLK [E18S] — higher, 3.21
- ITYPPGVKEISDKISKEQMVRRLK [E18Q] — higher, 4.15
- ITYPPGVKEISDKISKEAMVRRLK [E18A] — higher, 4.37
- ITYPPGVKEISDKISKEPMVRRLK [E18P] — higher, 3.69
- ITYPPGVKEISDKISKEHMVRRLK [E18H] — higher, 4.01
- ITYPPGVKEISDKISKEEMGRRLK [V20G] — higher, 4.59
- ITYPPGVKEISDKISKEEMCRRLK [V20C] — higher, 3.74
- ITYPPGVKEISDKISKEEMSRRLK [V20S] — higher, 4.83
- ITYPPGVKEISDKISKEEMRRRLK [V20R] — higher, 4.61
- ITYPPGVKEISDKISKEEMQRRLK [V20Q] — higher, 4.03
- ITYPPGVKEISDKISKEEMHRRLK [V20H] — higher, 4.19
- ITYPPGVKEISDKISKEEMVRRKK [L23K] — higher, 4.85
- ITYPPGVKEISDKISKEEMVRREK [L23E] — higher, 4.84
- ITYPPGVKEISDKISKEEMVRRAK [L23A] — higher, 4.61
- ITYPPGVKEISDKISKEEMVRRMK [L23M] — higher, 3.78
- ITYPPGVKEISDKISKEEMVRRYK [L23Y] — higher, 3.7
- ITYPPGVKEISDKISKEEMVRRIK [L23I] — higher, 4.51
- ITYPPGVKEISDKISKEEMVRRQK [L23Q] — higher, 4.75
- ITYPPGVKEISDKISKEEMVRRTK [L23T] — higher, 4.79
- ITYPPGVKEISDKISKEEMVRRHK [L23H] — higher, 4.08
- ITYPPGVKEISDKISKCEMVRRLK [E17C] — lower, 2.91
- ITYPPGVKEISDKISKWEMVRRLK [E17W] — lower, 2.75
- ITYPPGVKEISDKISKDEMVRRLK [E17D] — higher, 3.72
- ITYPPGVKEISDKISKQEMVRRLK [E17Q] — higher, 3.17
- ITYPPGVKEISDKISKLEMVRRLK [E17L] — lower, 2.59
- ITYPPGVKEISDKISKSEMVRRLK [E17S] — higher, 3.68
- ITYPPGVKEISDKISKPEMVRRLK [E17P] — higher, 3.6
- ITYPPGVKEISDKISKEEYVRRLK [M19Y] — higher, 3.96
- ITYPPGVKEISDKISKEEVVRRLK [M19V] — higher, 4.65
- ITYPPGVKEISDKISKEEKVRRLK [M19K] — higher, 4.54
- ITYPPGVKEISDKISKEEEVRRLK [M19E] — higher, 4.79
- ITYPPGVKEISDKISKEERVRRLK [M19R] — higher, 4.34
- ITYPPGVKEISDKISKEEFVRRLK [M19F] — higher, 3.26
- ITYPPGVKEISDKISKEEIVRRLK [M19I] — higher, 4.24
- ITYPPGVKEISDKISKEENVRRLK [M19N] — higher, 4.76
- ITYPPGVKEISDKISNEEMVRRLK [K16N] — lower, 2.63
- ITYPPGVKEISDKISEEEMVRRLK [K16E] — higher, 3.87
- ITYPPGVKEISDKISCEEMVRRLK [K16C] — higher, 3.87
- ITYPPGVKEISDKISGEEMVRRLK [K16G] — lower, 2.83
- ITYPPGVKEISDKISIEEMVRRLK [K16I] — lower, 2.85
- ITYPPGVKEISDKISSEEMVRRLK [K16S] — higher, 4.47
- ITYPPGVKEISDKITKEEMVRRLK [S15T] — higher, 3.66
- ITYPPGVKEISDKICKEEMVRRLK [S15C] — higher, 3.23
- ITYPPGVKEISDKIIKEEMVRRLK [S15I] — lower, 2.73
- ITYPPGVKEISDKIYKEEMVRRLK [S15Y] — higher, 3.46
- ITYPPGVKEISDKIFKEEMVRRLK [S15F] — lower, 2.33
- ITYPPGVKEISDKIAKEEMVRRLK [S15A] — higher, 4.27
- ITYPPGVKEISDKISKEEMVRRLW [K24W] — lower, 2.72
- ITYPPGVKEISDKISKEEMVRRLI [K24I] — lower, 3.04
- ITYPPGVKEISDKISKEEMVRRLR [K24R] — higher, 4.2
- ITYPPGVKEISDKISKEEMVRRLH [K24H] — higher, 3.85
- ITYPPGVKEISDKISKEEMVRRLG [K24G] — higher, 3.77
- ITYPPGVKEISDKISKEEMVRRLY [K24Y] — lower, 2.67
- ITYPPGVKEISDKISKEEMVRRLF [K24F] — lower, 2.48
